# Laboratory results as given in patent EP4714976A1.
# Where a chain is given by its changes, count along the chain named.
# B1: 3A8 scFv-Fc (Fc fusion)
# chain: QVQLQQSGAELVKPGASVKMSCKASGYTFTIYNIHWVRQTPGQGLEWIGLIYPDNGDTSYNQKFKAKATLTADKSSSTAYMQLSSLTSEDSAVYYCARGGFDYWGQGTSLTVSSGGGGSGGGGSGGGGSDIVMTQSQKFMSTSVGDRVSVTCKASQNVGTNVAWYQQKPGQSPKALIYSASYRYSGVPDRFTGSGSGTDFTLTISNVQAEDLADYFCQQHYSTPYTFGGGTKLEMKESKYGPPCPPCPAPEAAGGPSVFLFPPKPKDTLMISRTPEVTCVVVDVSQEDPEVQFNWYVDGVEVHNAKTKPREEQFNSTYRVVSVLTVLHQDWLNGKEYKCKVSNKGLPSSIEKTISKAKGQPREPQVYTLPPSQEEMTKNQVSLTCLVKGFYPSDIAVEWESNGQPENNYKTTPPVLDSDGSFFLYSKLTVDKSRWQEGNVFSCSVMHEALHNHYTQKSLSLSLG
# B2: 3E2 scFv displayed on phage (scFv)
# scFv: EIQLQQSGAELVKPGASVKMSCKASGYTFSFYNMHWVKRTPGQGLEWIGLIYPDNGDTSYNQKFKGKATLTADTSSSTAYMQLSSLTSEDSAVYYCARGGLDYWGQGTSLTVSSGGGGSGGGGSGGGGSNIVMTQSQKFMSTSVGDRVSVTCKASQNVGTNVAWYQQKPGQSPKALIYSASYRYTGVPDRFTGSGSGTDFTFTISSVQAEDLAVYYCQQHYSTPYTFGGGTKLEIK
# B3: 3F10 scFv displayed on phage (scFv)
# scFv: EVQLQQSGAELVKPGASVKMSCKASGYTFSFYNIHWVRQTPGQGLEWIGLIYPDNGDTSYNQKFKAKATLTADKSSSTAYMQLSSLTSEDSAVYYCARGGFDYWGQGTTLTVSSGGGGSGGGGSGGGGSDVLMTQSPASLSASVGETVTITCGASENIYGALNWYQRKQGKSPQLLIYGATNLADGMSSRFSGSGSGRQYSLKISSLHPDDVATYYCQNVLSTPYTFGGGTKLEIK
# B4: 3E3 scFv displayed on phage (scFv)
# scFv: QVQLQQPGAVLVKPGASVRMSCKASGYTFPYYNVHWVKRTPGQGLEWIGLIYPDNGDTSYNQKFTGKATLTADTSSSTAYMQLSSLTSEDSAVYYCARGGLDYWGQGTTLTVSAGGGGSGGGGSGGGGSDVQITQSPASLSASVGETVTITCGASENIYGALNWYQRKQGKSPQLLIYGATNLADGMSSRFSGSGSGRQYSLKISSLHPDDVATYYCQNVLSTPYTFGGGTKLEIK
# B5: 3F5 scFv displayed on phage (scFv)
# scFv: EIQLQQSGAELVKPGASVKMSCKASGYTFRYYNMHWVKRTPGQGLEWIGLIYPDNGDTSYNQKFKGKATLTADTSSSTAYMQLSSLTSEDSAVYYCARGGLDYWGQGTTLTVSSGGGGSGGGGSGGGGSDIVLTQSPASLSASVGETVTITCGASENIYGALNWYQRKQGKSPQLLIYGATNLADGMSSRFSGSGSGRQYSLKISSLHPDDVATYYCQNVLSTPYTFGGGTKLEIK
# B6: 3B4 scFv displayed on phage (scFv)
# scFv: B5 scFv with I2V, E10D, R30S, K38R, V132Q, L133M, T134I, L140M, I235M
# B7: 2B2 scFv displayed on phage (scFv)
# scFv: QLQLQQSGAELVKPGASVKMSCKASGYTFASYNLHWVKQTPGQGLEWIGLIYPENGDTSYNQKFKDKATLTADKSSTTAYIQLSSLASEDSAVYFCARGGFDYWGQGTTLTVSSGGGGSGGGGSGGGGSDIVMTQSQKFMSTSVGDRVSVTCKASQNVGTNVAWYQQKPGQSPKALIYSASYRYSGVPDRFTGSGSGTDYTLTISSVQAEDLALYYCQQHYSTPYTFGGGTKLELK
# B8: 1B8 scFv displayed on phage (scFv)
# scFv: QIQLQQSGAELVKPGASVKMSCKASGYTFASYNLHWVKQTPGQGLEWIGLIYPENGDTSYNQKFKGKATLTADTSSTTAYIQLSSLTSEDSAVYFCARGGFDYWGQGTSLTVSSGGGGSGGGGSGGGGSDIKMTQSPASLSASVGETVTITCGASENIYGALNWYQRKQGKSPQLLIYGATNLADGMSSRFSGSGSGRQYSLKISSLHPDDVATYYCQNVLSTPYTFGGGTKLEIK
# B9: 1A3 scFv displayed on phage (scFv)
# scFv: B8 scFv with I2V, S7P, T74K, T77S, S109T, S114Q, K132Q
# B10: 3G10 scFv displayed on phage (scFv)
# scFv: EVQLQQSGPELVKPGASVKMSCKASGYTFATYNMHWVKQTTGQGLEWIGAIYPDNGDTFYNRKFKDKATLTADKSSTTAYMQLSSLTSEDSAVYYCARGDFAYWGQGTLVTVSAGGGGSGGGGSGGGGSDVLMTQSPASLSASVGETVTITCGASENIYGALNWYQRKQGKSPQLLIYGATNLADGMSSRFSGSGSGRQYSLKISSLHPDDVATYYCQNVLSTPYTFGGGTKLEMK
# B11: 3D7 scFv displayed on phage (scFv)
# scFv: QVQLQQSGAELVKPGASVKMSCKASGYTFSFYNMHWVKRTPGRGLEWIGLIYPDNGDTSYNQKFKGKATLTADTSSSTAYMQLSSLTSEDSAVYYCARGGLDYWGQGTSLTVSSGGGGSGGGGSGGGGSEIVLTQSPASLAVSLGQRATISCKASQSVDYDGDSYMNWYQQKPGQPPKLLIYGISNRFSGVPDRFSGSGSGTDFTLKISTIKPEDLGMYYCLQGTHQPYTFGGGTKLEIK
# B12: 1G6 scFv displayed on phage (scFv)
# scFv: EIQLQQSGAELVKPGASVKMSCKASGYTFRYYNMHWVKRTPGQGLEWIGLIYPDNGDTSYNQKFKGKATLTADTSSSTAYMQLSSLTSEDSAVYYCARGGLDYWGQGTSLTVSSGGGGSGGGGSGGGGSNIVMTQSHKFMSTSVGDRVSITCKASQDVNTDVAWYQQKPGQSPKLLIYSASYRYTGVPTRFTGSGSGTDFTFTISGVQAEDLADYYCQQHYNTPYTFGGGTKLELK
# B13: 3F11 scFv displayed on phage (scFv)
# scFv: QVQLQQSGAELVKPGASVKMSCKASGYTFAPYNIHWVRQTPGQGLEWIGLIYPDNGDTSYNQKFKAKATLTADKSSSTAYMQLSSLTSEDSAVYYCARGGFDYWGQGTSLTVSSGGGGSGGGGSGGGGSDIVMTQSQKFMSTSVGDRVSVTCKASQNVGTNVAWYQQKPGQSPKALIYSASYRYSGVPDRFTGSGSGTDFTLTISNVQSEDLAEYFCQQHYSTPFTFGSGTKLEIK
# B14: 3A8 scFv displayed on phage (scFv)
# scFv: B13 scFv with A30T, P31I, S209A, E214D, F225Y, S229G, I235M
# B15: 3A3 scFv displayed on phage (scFv)
# scFv: QVQLQQSGAELVKPGASVKMSCKASGYTFTTYNIHWVRQTPGQGLEWIGLIYPDNGDTSYNQKFKAKATLTADKSSSTAYMHLSSLTSEDSAVYYCARGGFDYWGQGTTLTVSSGGGGSGGGGSGGGGSDIVMTQSHKFMSTSVGDRVSITCKASQDVNTDVSWYQQKPGQSPKLLIYSASYRYTGVPTRFTGSGSGTDFTFTISGVQAEDLADYYCQQHYNTPYTFGGGTRLEIK
# B16: 3H6 scFv displayed on phage (scFv)
# scFv: QVQLQQSGAELVKPGASVKMSCKASGYTFSFYNIHWVRQTPGQGLEWIGLIYPDNGDTSYNQKFKAKATLTADKSSSTAYMQLSSLTSEDSAVYYCARGGFDYWGQGTTLTVSSGGGGSGGGGSGGGGSDIQMTQSPASLSASVGETVTITCRASENIYSYLAWYQQKQGKSPQLLVYNAKTLAEGVPSRFSGSGSGTQFSLKINSLQPEDFGSYYCQHHYGTPYTFGGGTKLEMK
# B17: 2B1 scFv displayed on phage (scFv)
# scFv: EVQLQQSGAELVKPGASVKMSCKASGYTFASYNLHWVKQTPGQGLEWIGLIYPENGDTSYNQKFKGKATLTADKSSSTAYIQLSSLTSEDSAVYFCARGGFDYWGQGTSLTVSSGGGGSGGGGSGGGGSDIQMIQSPASLSVSVGETVTITCRASENIYSNLAWYQQKQGKSPQLLVYNAKTLADGVPSRFSGSGSGTQYSLKINSLQPEDFGSYYCQHFWSTPYTFGGGTKLEIK
# B18: 3E1 scFv displayed on phage (scFv)
# scFv: QVQLQQPGAEVVKPGASVKMSCKASGYTFTDYYIHWVKQTPGQGLEWIGAIYPDNGDTSYNQKFKVKATLTADKSSSTAYMQLSSLTSEDSAVYYCARAFTYWGQGTLVTVSAGGGGSGGGGSGGGGSDILITQSPASLSASVGETVTITCGASENIYGALNWYQRKQGKSPQLLIYGATNLADGMSSRFSGSGSGRQYSLKISSLHPDDVATYYCQNVLSTPYTFGGGTKLEIK
# B19: 3E7 scFv displayed on phage (scFv)
# scFv: QVQLQQSGAELVKPGASVKMSCKASGYTFTIYNIHWVRQTPGQGLEWIGLIYPDNGDTSYNQKFKAKATLTADKSSSTAYMQLSSLTSEDSAVYYCARGGFDYWGQGTTLTVSSGGGGSGGGGSGGGGSNIVMTQSQKFMSTSVGDRVSVTCKASQNVGTNVAWYQQKPGQSPKALIYSASYRYSGVPDRFTGSGSGTDFTLTISGVQAEDLADYYCQQHYNTPYTFGGGTKLEIK
# B20: 1D7 scFv displayed on phage (scFv)
# scFv: QIQLQQSGAELVKPGASVKMSCKASGYTFRYYNMHWVKRTPGQGLEWIGLIYPDNGDTSYNQKFKGKATLTADTSSSTAYMQLSSLTSEDSAVYYCARGGLDYWGQGTSLTVSSGGGGSGGGGSGGGGSDIQMTQSPSSMSASLGDRITITCQATQDIVKNLNWYQQKPGKPPSFLIYYATELAEGVPSRFSGSGSGSDYSLTISNLESEDFADYYCLQFYEFPLTFGAGTKLELK
# Biological target: recombinant mouse FGFR2b (mouse) (UniProt P21803)
# Experiment: BLI, antibody on AHC2 sensor
# Sequence of recombinant mouse FGFR2b (mouse) (P21803 22-377): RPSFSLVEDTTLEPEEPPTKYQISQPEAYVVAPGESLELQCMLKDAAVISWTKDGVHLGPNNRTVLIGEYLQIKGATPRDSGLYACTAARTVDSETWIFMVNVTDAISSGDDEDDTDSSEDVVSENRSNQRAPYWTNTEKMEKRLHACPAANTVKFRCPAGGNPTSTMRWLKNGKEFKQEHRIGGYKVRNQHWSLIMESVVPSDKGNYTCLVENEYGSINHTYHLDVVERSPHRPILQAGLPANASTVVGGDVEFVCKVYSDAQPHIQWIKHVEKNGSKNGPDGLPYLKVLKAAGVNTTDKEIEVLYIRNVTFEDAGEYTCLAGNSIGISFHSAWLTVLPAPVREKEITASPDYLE
Binder,Kd,koff,kon
B1,7.17 nM,0.000306 s⁻¹,42700 M⁻¹ s⁻¹

# Biological target: extracellular domain of the FGFR2b protein (NP_075259.4) (UniProt P21802)
# Experiment: phage ELISA
# Sequence of extracellular domain of the FGFR2b protein (NP_075259.4) (P21802 other isoform, or with tags, fused parts or gaps): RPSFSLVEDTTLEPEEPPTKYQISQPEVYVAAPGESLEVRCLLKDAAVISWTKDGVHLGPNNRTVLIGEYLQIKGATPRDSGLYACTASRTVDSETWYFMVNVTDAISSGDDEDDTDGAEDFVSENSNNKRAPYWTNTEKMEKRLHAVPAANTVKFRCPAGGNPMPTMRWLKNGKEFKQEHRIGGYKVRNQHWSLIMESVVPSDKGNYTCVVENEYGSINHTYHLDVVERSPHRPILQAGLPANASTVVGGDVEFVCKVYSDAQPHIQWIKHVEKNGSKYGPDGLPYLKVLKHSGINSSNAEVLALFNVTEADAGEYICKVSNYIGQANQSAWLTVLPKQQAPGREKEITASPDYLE
row,Binder,OD (450 nm) value
1,B2,1.87
2,B3,1.85
3,B4,2.28
4,B5,1.94
5,B6,2.47
6,B7,2.38
7,B8,2.65
8,B9,2.67
9,B10,1.95
10,B11,2.2
11,B12,2.44
12,B13,2
13,B14,2.22
14,B15,2.33
15,B16,2.29
16,B17,2.33
17,B18,2.17
18,B19,1.88
19,B20,2.14
